Assay results: patent US11827690B2, “ApoC-II mimetic peptides” (THE UNITED STATES OF AMERICA, as represented by the …, priority 2017, dated 2023)
Non-standard residues stand in square brackets, D forms with d. No end group written: not given here. Nle = CCCC[C@H](N)C(=O)O

How the values were obtained:
[1] = test system: chylomicrons isolated from human plasma; assay: ApoC-III displacement study in chylomicrons isolated from human plasma; assay type: binding
Experimental: VLDL or chylomicrons isolated from human plasma were incubated with an apoC-II mimetic peptide for 1 hour at 37° C. and washed 3 times with PBS using spin filter with 100 kDa cutoff membrane. Supernatants were brought to the original volume with PBS and loaded to 4-12% Bis-TRIS SDS PAGE gel. ApoC-I, apoC-II, apoC-III, and apoE bands were identified by their corresponding size.

[2] = target: T1, LPL inhibited by apoC-III (Bos taurus, UniProt P11151); assay: LPL assay using human apoC-II deficient plasma as substrate with recombinant apoC-III; assay type: biochemical; details: 25 μM apoC-III, FIG. 50
T1 sequence (P11151 29-478): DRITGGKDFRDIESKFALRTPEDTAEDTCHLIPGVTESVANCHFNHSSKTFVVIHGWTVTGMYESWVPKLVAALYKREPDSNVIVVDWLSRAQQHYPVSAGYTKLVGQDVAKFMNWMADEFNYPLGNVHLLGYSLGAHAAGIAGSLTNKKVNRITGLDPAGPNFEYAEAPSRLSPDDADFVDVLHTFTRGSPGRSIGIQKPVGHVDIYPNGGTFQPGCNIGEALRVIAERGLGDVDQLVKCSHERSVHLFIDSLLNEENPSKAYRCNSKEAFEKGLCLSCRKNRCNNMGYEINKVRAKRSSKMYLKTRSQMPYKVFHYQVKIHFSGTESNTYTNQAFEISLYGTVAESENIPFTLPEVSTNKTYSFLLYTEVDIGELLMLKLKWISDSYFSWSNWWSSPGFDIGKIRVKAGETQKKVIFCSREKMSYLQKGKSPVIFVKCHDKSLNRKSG
Experimental: (§1) LPL activity assay: 10 μL of Intralipid, human plasma sample, or mouse plasma sample was added in each well using repeater pipette. 10 μL (or 15 μL in the wells with no LPL control) of PBS and 10 μL of 1% BSA was added in each well using repeater pipette. 10 μL of peptides were added to corresponding wells in vertical triplicates (lowest concentration is on a left, highest is on the right). The plate was spun down at 1000 RPM for 10 seconds to mix and to remove the solutions from the wall of each well. The plate was put on ice and 5 μL of LPL was added using repeater pipette. The plate was spun down again at 1000 RPM for 10 seconds. The plate was covered and put back on ice for an incubation of 30 min. The plate was then moved to 37° C. and incubated for 1 hour.
(§2) Free fatty acids (NEFA) assay: 45 μL of 5 nmoL standard and 0 nmoL control (0.2% BSA) were added to corresponding wells. 225 μL of reagent A was added in each well using the reagent tray and 12-channel pipette. The plate was incubated for 10 min before 75 μL of reagent B was added to each well using the reagent tray and 12-channel pipette. The plate was not covered due to the high volume. The absorbance at 550 nm and 660 nm was measured.
LPL assay was performed using Intralipid, high TG human plasma (1:50 dilution), or apoC-III transgenic mouse plasma (1:50 dilution). When Intralipid was used as a substrate, 25 or 50 μM recombinant ApoC-III was added as an inhibitor. When the high TG human plasma was used as a substrate, 25 or 50 μM recombinant ApoC-III was added as an inhibitor with or without pre-incubation at 37° C. for 1 hour. An apoC-II mimetic peptide was added at various concentrations.

bovine LPL [3] = target: T2, bovine LPL (Bos taurus, UniProt P11151); assay: in vitro LPL assay using hypertriglyceridemia patient sera as substrate; assay type: biochemical
T2 sequence (P11151 29-478): T1 sequence (P11151 29-478)
Experimental: (§3) Preparation of LPL: frozen stock of 10 μL of 0.5 mg/mL bovine LPL was used and diluted 1:100 (10 μL+990 μL of PBS).
(§4) Preparation of free fatty acid (NEFA) assay: NEFA reagents were purchased from Wako Diagnostics, Wako Life Sciences, Inc. Reagent A was prepared by mixing Coloring Reagent A with Solvent A (225 μL per well). Reagent B was prepared by mixing Coloring Reagent B with Solvent B (75 μL per well). 5 nmoL oleic acid standard was prepared by diluting 20 μL of 1 mM oleic acid stock (WAKO NEFA standard solution) with 180 μL of 0.2% BSA.
as §1, §2

apoC-II knockout mice = assay: plasma lipids of apoC-II knockout mice after peptide injection; assay type: in vivo
Experimental: C57Bl/6 mice (wild-type), apoC-II knockout (apoC-II KO) mice, and apoC-III transgenic mice were used for in vivo study. The C57Bl/6 mice (wild-type) were purchased from Taconic Biosciences Inc. The apoC-II KO mice were created as described in Sakurai et al., J Pharmacol Exp Ther 356:341-353, 2016. The apoC-III transgenic mice were generated by overexpressing human apoC-III in C57Bl/6 mice. See Qu et al., J. Lipid Res. 48:1476-1487, 2007.
Mice were fasted overnight (approximately 12 hours) before the study and 6 hours during the study, the next day. The apoC-II mimetic peptides were synthetically produced and free of biological contamination (not available as FDA approved compounds/treatment). […] W.) administered either subcutaneous injection (S.Q. or S.C.), intraperitoneal injection (I.P.) or intravenous injection (I.V.) (in a sterile, pharmaceutical grade PBS solution at a volume ≤200 μL) as described in Sakurai et al., J Pharmacol Exp Ther 356:341-353, 2016.

bovine LPL [4] = target: T2, bovine LPL; assay: in vitro LPL assay using apoC-II deficient patient sera as substrate; assay type: biochemical
Experimental: as §3
Preparation of 20% Intralipid: 2000 mg/dL TG Intralipid was used to prepare 3 mg/dL TG Intralipid by diluting 1.5 μL of the stock with 998.5 μL PBS, or by diluting the stock 1:10 first and then mixing 15 μL of the diluted stock with 985 μL PBS. When apoC-II deficient human serum was used as a substrate, a frozen 10 μL aliquot of 1711 mg/dL (TG) was diluted by adding 990 μL PBS (1:100 dilution).
as §4, §1, §2

[5] = test system: VLDL isolated from human plasma; assay: ApoC-III displacement study in VLDL isolated from human plasma; assay type: binding
Experimental: VLDL or chylomicrons isolated from human plasma were incubated with an apoC-II mimetic peptide for 1 hour at 37° C. and washed 3 times with PBS using spin filter with 100 kDa cutoff membrane. […] ApoC-I, apoC-II, apoC-III, and apoE bands were identified by their corresponding size.

DYLKEVFEKLRDLYEKFTAAnLSTYTGIFTDQVLSVLKGEE (DYLKEVFEKLRDLYEKFTAA[Nle]STYTGIFTDQVLSVLKGEE) [Delta6]
affinity for chylomicrons compared with the apolipoproteins [1]: higher affinity
effect on inhibition of LPL by apoC-III [2]: overcame the inhibitory effect of apoC-III and facilitated lipolysis
LPL activation (bovine LPL [3]; patient sera TG about 1000 mg/dL to about 1700 mg/dL, FIGS. 15A-D): activated LPL in vitro
LPL activity (bovine LPL [3]; sera of patients with high levels of apoC-III protein, FIG. 27): increased the LPL activity
plasma TG (apoC-II knockout mice; 0.25, 0.5, and 1 μmol/kg of body weight intraperitoneally, all doses, FIG. 23): rapid and marked reduction of plasma TG
plasma TG (apoC-II knockout mice; intraperitoneal injection): rapid and marked reduction of plasma TG
total cholesterol level (apoC-II knockout mice; intraperitoneal injection): decrease in the total cholesterol level
LPL activation compared with full length apoC-II protein (bovine LPL [4]; 10 pM to 10 μM, FIG. 51): activated LPL in vitro more efficiently than the full length apoC-II protein
promoting TG hydrolysis in the presence of LPL (bovine LPL [4]; FIG. 6): capable of promoting TG hydrolysis in the presence of LPL
efficiency compared with native apoC-II protein (bovine LPL [4]; at lower concentrations, FIG. 6): worked more efficiently than the native apoC-II protein
TG hydrolysis (bovine LPL [4]; concentrations from 100 pM to 10 nM, FIG. 14): exhibited the ability to promote TG hydrolysis in a dose dependent matter
affinity for the VLDL compared with the apolipoproteins [5]: higher affinity
apoC-III displacement in VLDL ([5]; SDS PAGE): capable of displacing apoC-III
